According to patent US7410767:

Key:
[1] = molecular target: T1, HLA-E (as used in the in vitro peptide binding assay and in immunoprecipitation) (human), P13747; experiment: in vitro peptide binding assay (ratio of optical densities); row .221-A*3601
[2] = molecular target: T1, HLA-E (as used in the in vitro peptide …); experiment: in vitro peptide binding assay (ratio of optical densities); row .221-A*0201
[3] = molecular target: T1, HLA-E (as used in the in vitro peptide …); experiment: in vitro peptide binding assay (ratio of optical densities); row .221-A*2501
[4] = molecular target: T1, HLA-E (as used in the in vitro peptide …); experiment: in vitro peptide binding assay (ratio of optical densities); row .221-A*2403
[5] = molecular target: T1, HLA-E (as used in the in vitro peptide …); experiment: in vitro peptide binding assay (ratio of optical densities); row .221-A*0211
[6] = molecular target: T1, HLA-E (as used in the in vitro peptide …); experiment: in vitro peptide binding assay (ratio of optical densities); row .221-B*5501

A Concentration of peptide required to obtain 50% of binding to HLA-E [1] of 0.3 µM was found for VMAPRTLLL (modifications not checked) in this work.

A Concentration of peptide required to obtain 50% of binding to HLA-E [2] of 0.06 µM, a Concentration of peptide required to obtain 50% of binding to HLA-E [3] of 0.06 µM and a Concentration of peptide required to obtain 50% of binding to HLA-E [4] of 0.06 µM were found for VMAPRTLVL (modifications not checked) in this work. The Concentration of peptide required to obtain 50% of binding to HLA-E [5] was 0.06 µM.

A Concentration of peptide required to obtain 50% of binding to HLA-E [6] of over 100 µM was found for VTAPRTLLL (modifications not checked) in this work.
